Among the data in PMC8238508, “Protein-based condensation mechanisms drive the assembly of RNA-rich P granules” are Kd values, retold here.

The target in series [1] is T1, MEG-3 (wild type) (Caenorhabditis elegans, UniProt Q9TXM1 1-862).
T1 sequence: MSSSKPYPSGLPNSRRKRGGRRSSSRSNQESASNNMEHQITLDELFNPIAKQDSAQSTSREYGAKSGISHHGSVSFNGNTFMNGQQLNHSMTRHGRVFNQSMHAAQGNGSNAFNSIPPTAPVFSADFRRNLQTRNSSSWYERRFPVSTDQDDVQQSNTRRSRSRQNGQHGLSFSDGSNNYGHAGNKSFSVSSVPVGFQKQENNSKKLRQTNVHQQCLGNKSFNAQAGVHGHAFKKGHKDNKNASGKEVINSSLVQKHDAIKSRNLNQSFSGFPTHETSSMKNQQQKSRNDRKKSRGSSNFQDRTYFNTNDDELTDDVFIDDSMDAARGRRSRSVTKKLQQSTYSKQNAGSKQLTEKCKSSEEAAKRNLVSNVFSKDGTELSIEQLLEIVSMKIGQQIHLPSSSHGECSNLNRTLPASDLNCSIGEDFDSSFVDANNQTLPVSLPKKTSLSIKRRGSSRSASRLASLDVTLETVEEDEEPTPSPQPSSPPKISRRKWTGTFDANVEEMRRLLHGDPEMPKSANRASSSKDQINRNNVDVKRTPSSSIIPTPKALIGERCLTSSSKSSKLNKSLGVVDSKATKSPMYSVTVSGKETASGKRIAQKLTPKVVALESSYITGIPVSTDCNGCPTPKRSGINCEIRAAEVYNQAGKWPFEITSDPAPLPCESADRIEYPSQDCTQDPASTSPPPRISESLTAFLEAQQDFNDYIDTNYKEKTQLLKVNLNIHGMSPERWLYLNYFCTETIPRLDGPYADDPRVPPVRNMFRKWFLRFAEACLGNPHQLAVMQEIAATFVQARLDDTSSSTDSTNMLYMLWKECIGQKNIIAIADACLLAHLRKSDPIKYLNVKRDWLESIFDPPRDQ
As to the kind of experiment: filter binding; mean and SD computed from four replicate fits: 809.8, 808.8, 661.5, 695.9; Hill model; 50 nM RNA; 3.75 mM HEPES (stock pH 7.4), 150 mM NaCl, 0.9 mM beta-mercaptoethanol, 1.5% glycerol, 10 mM Tris HCl; 30 min, room temperature; nitrocellulose/Hybond-N+ dot blot. Conditions: protein: recombinant; tags: N-terminal 6xHis (pET28a); label: 3' fluorescein.

For series [2], the target named is T2, MEG-3 IDR (Caenorhabditis elegans, UniProt Q9TXM1 1-544).
T2 sequence: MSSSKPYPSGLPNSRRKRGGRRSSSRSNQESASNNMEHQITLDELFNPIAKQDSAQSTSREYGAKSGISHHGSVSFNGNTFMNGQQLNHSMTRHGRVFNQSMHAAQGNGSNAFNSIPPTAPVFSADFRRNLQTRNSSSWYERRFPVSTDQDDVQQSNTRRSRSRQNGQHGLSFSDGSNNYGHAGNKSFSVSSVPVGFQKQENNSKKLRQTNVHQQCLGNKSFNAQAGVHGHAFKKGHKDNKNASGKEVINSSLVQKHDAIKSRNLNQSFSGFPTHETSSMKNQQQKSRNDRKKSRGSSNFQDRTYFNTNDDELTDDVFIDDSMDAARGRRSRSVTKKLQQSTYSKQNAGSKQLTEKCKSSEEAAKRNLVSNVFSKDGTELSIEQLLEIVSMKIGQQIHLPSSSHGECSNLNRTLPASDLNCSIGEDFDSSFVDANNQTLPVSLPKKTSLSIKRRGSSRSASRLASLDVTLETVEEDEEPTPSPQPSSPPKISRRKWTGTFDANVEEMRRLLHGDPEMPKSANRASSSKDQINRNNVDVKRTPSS
Kind of series: filter binding; mean and SD computed from four replicate fits: 109.3, 83.64, 103.3, 107.9; Hill model; curve assigned by legend order; 50 nM RNA; 3.75 mM HEPES (stock pH 7.4), 150 mM NaCl, 0.9 mM beta-mercaptoethanol, 1.5% glycerol, 10 mM Tris HCl; 30 min, room temperature; nitrocellulose/Hybond-N+ dot blot. Conditions: protein: recombinant; tags: N-terminal 6xHis (pET28a); label: 3' fluorescein.

With UUUUUUUUUUUUUUUUUUUUUUUUUUUUUU (ssRNA) [poly-U(30) (30U)], the Kd (in general, a measure of binding affinity in units of concentration) in series [1] is 744 ± 77 nM; in series [2], 101 ± 12 nM.
